Measured values reported in the nanobody polyreactivity screen of Harvey et al. (2022).

Experiment: yeast display, Sf9 membrane polyspecificity reagent, FACS + sequencing; frameworks hold sequencing errors
Outline: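 In a synthetic yeast display library (Saccharomyces cerevisiae BJ5465), nanobody expression was induced with galactose for 36–48 hours. FACS gates were set low and high (top ~1%) using anti-HA fluorescence for expression and streptavidin fluorescence for binding of the Sf9 membrane reagent. Each polyreactivity label is drawn from the gate of origin.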

| Sequence | polyreactivity (PSR sort gate) |
| --- | --- |
| QVQLVESGGGLVQAGGSLRLSCAASGRIFQGNAMGWYRQAPGKERELVAAITTSGGSTYYADSVKGRFTISRDNAKNTVYLQMNSLKPEDTAVYYCNVDPRKRSYDYWGQGTQVTVSS | high polyreactivity |
| QVQLVESGGGLVQAGGSLRLSCAASGRIFQGNAMGWYRQAPRKERELVAAISWRGGRTYYADSVKGRFTISRAYAKNTVYLQMNSLKPEDTAVYYCAAKAYREDEGYWGQGTQVTVSS | high polyreactivity |
| QVQLVESGGGLVQAGGSLRLSCAASGRIFQGYAKGWYRQAPGKERELVAAIRTGGSTNYADSVKGRFTISRDNAKNTVYLQMNSLKPEDTAVYYCNAVGQLYFYFPRGDYWGQGTQVTVSS | low polyreactivity |
| QVQLVESGGGLVQAGGSLRLSCAASGRIFQGYAMGWYRKAPGKERELVAAIRSGSGSTYYADSVKGRFTISRDNAKNTVYLQMNSLKPEDTAVYYCAADRYYWGQGTQVTVSS | low polyreactivity |
| QVQLVESGGGLVQAGGSLRLSCAASGRIFQGYAMGWYRQAPGKEREFVAVISTSGGRTSYADSVKGRFTISRDNAKNTVYLQMNSLKPEDTAVYYCNALYGRYGWSKNYYWGQGTQVTVSS | high polyreactivity |
| QVQLVESGGGLVQAGGSLRLSCAASGRIFQKYAMGWYRQAPGKERELVAAISSGDSTYADSVKGRFTISRDNAKNTVYLQMNSLKPEDTAVYYCAVDLYDPWWYSYIGEYEYWGQGTQVTVSS | low polyreactivity |
| QVQLVESGGGLVQAGGSLRLSCAASGRIFQKYAMGWYRQAPGKERELVAAISSGDSTYADSVKGRFTISRDNAKNTVYLQMNSLKPEDTAVYYCNREVPESQGFITPDGYCGQGTQVTVSS | low polyreactivity |
| QVQLVESGGGLVQAGGSLRLSCAASGRIFQNNAMGWYRQAPGKERELVAAINIIDGVTYYADSVKGRFTISRDNAKNTVYLQMNSLKPEDTAVYYCNAVRRAHHRKYNYWGQGSQVTVSS | low polyreactivity |
| QVQLVESGGGLVQAGGSLRLSCAASGRIFQPNAMGWYRQAPGKERELVAAISSSGGRTYYADSVKGRFTISRDNAKNTVYLQMNSLKPEDSAVYYCNAGGYRYRSYDYWGQGTQVTVSS | high polyreactivity |
| QVQLVESGGGLVQAGGSLRLSCAASGRIFQPNAMGWYRQAPGKERELVAAISSSGGRTYYADSVKGRFTISRDNAKNTVYLQMYSLKPEDSAVYYCNAGGYRYRSYDYWGQGTQVTVSS | high polyreactivity |
| QVQLVESGGGLVQAGGSLRLSCAASGRIFQPNVMGWYRQAPGKERELVAAIRSGSSTYYADSVKGRFTISRDNAKNTVYLQMNSLKPEDTAVYYCATRRAGRGYDYWGQGTQVTVSS | high polyreactivity |
| QVQLVESGGGLVQAGGSLRLSCAASGRIFQRNAMGWYRQAPGKERELVAAITSTGVRTYYADSVKGRFTISRDNAKNTVYLQMNSLKPEDTAVYYCAVRGERRYIYAYWGQGTQVTVSS | high polyreactivity |
| QVQLVESGGGLVQAGGSLRLSCAASGRIFQRNAMGWYRQAPGKVWELVAAITSTGVRTYYADSVKGRFTISRDNAKNTVYLQMNSLKPEDSAVYYCNAVGRRVRTWHDYDYWGQGTQVTVSS | high polyreactivity |
| QVQLVESGGGLVQAGGSLRLSCAASGRIFQRYAMGWYRQAPGKERELVAAISKNGGRTYYADSVKGRFTISRDNAKNTVYLQMNSLKPEDTAVYYCNKGTAGYEYAAFDYWGQGTQVTVSS | low polyreactivity |
| QVQLVESGGGLVQAGGSLRLSCAASGRIFQRYTMGWYRQAPGKEREFVAAITYSGGSTHYADSVKGRFTISRDNAKNTVYLQMNSLKPEDTAVYYCNADRYYGRGYGYWGQGTQVTVSS | low polyreactivity |
| QVQLVESGGGLVQAGGSLRLSCAASGRIFQVNAMGWYRQAPGKERELVAAITYSGGTTYYADSVKGRFTISRDNAKNTVYLQMNSLKPEDTAVYYCNAEYRWPYWGQWYFKGYDYWGQGTQVTVSS | low polyreactivity |
| QVQLVESGGGLVQAGGSLRLSCAASGRIFQWYTMGWYRQAPGKERELVATITDGGSTYYADSVKGRFTISRDNAKNTVYLQMNSLKPEDTAVYYCAARKIGSRRLLYPYYIFGYWGQGTQVTVSS | high polyreactivity |
| QVQLVESGGGLVQAGGSLRLSCAASGRIFQYYAMGWYRQAPGKEREFVAAISDSGSNTYYADSVKGRFTISCDKAKNTVYLQMNSLKPEDTAVSYCAALYATRALFYFWGQGTQVTVSS | low polyreactivity |
| QVQLVESGGGLVQAGGSLRLSCAASGRIFQYYAMGWYRQAPGKERELVAAISSSGGSTYYADSVKGRFTISRDNAKNTVYLQMNSLKPEDTAVYYCNADRNARQNRRDYWGQGTQVTVSS | high polyreactivity |
| QVQLVESGGGLVQAGGSLRLSCAASGRIFQYYAMGWYRQEPGKERELVAAISGSGGRTYYADSVKGRFTISRDNAKNTVYLQMNSLKPEDTAVYYCNAVYRYYPFDYWGQGTQVTVSS | high polyreactivity |
| QVQLVESGGGLVQAGGSLRLSCAASGRIFRAYAMGWYRQAPGKERELVADIRGGGSTNYADSVKGRFTISRDNAKNTVYLQMNSLKPEDTAVYYCNAAAYRGMRQGPRYYYWGQGTQVTVSS | high polyreactivity |
| QVQLVESGGGLVQAGGSLRLSCAASGRIFRFYAMGWYRQAPGKERELVAAISSRGGSTYYADSVKGRFTISRDNAKNTVYLQMNSLKPEDTAVYYCNAYGSTSQMDYWGQGTQVTVSS | high polyreactivity |

| Sequence | polyreactivity (PSR sort gate) |
| --- | --- |
| QVQLVESGGGLVQAGGSLRLSCAASGRIFRFYAMGWYRQAPGKERELVAVISTGGRTYYADSVKGRFTISRDNAKNTVYLQMNSLKPEDTAVYYCAAEYTTIGRYDGWHYNYWGQGTQVTVSS | high polyreactivity |
| QVQLVESGGGLVQAGGSLRLSCAASGRIFRFYTMAWYRQAPGKERELVAAITQRGGRTYYADSVKGRFTISRDNAKNTVYLLMNSLKPEDTAVFYCAATTTVAEYDYWGQGTQVTVSS | high polyreactivity |
| QVQLVESGGGLVQAGGSLRLSCAASGRIFRGNAMGWYRQAPGKERELVAAISNSGGRTYYADSVKGRFTISRDNAKNTVYVQMTSLKPEDTAVYYCNAVTYSRRYAYYYWGQGTQVTVSS | high polyreactivity |
| QVQLVESGGGLVQAGGSLRLSCAASGRIFRGNTMGWYRQAPGKERELVAAITRGGSTSYADSVKGRFTISRDNAKNTVYLQMNSLKPEDTAVYYCATRTHGEGTRRDSWGQGTQVTVSS | low polyreactivity |
| QVQLVESGGGLVQAGGSLRLSCAASGRIFRGSAMGWYRQAPGKERELVATINASGGTTYYADSVKGRFTISRDNAKNTVYLQMNSLKPEDTAVYYCNARFRRFFSGYGYWGQGTQVTVSS | high polyreactivity |
| QVQLVESGGGLVQAGGSLRLSCAASGRIFRGYAMGSYRQETGKETELVAAISRSGGSTYYADSVKGRFTISRDNAKNTVYLQMNILKPEDTAVYYCNTKYVRYYRRYDSWGQGTQVTVSS | high polyreactivity |
| QVQLVESGGGLVQAGGSLRLSCAASGRIFRGYAMGWYRQAPGKERELVAAINSGGDTYYADSVKGRFTISRDNAKNTVYLQMNSLKPEDTAVYYCAAAWWDYGNGKYDYWGQGTQVTVSS | low polyreactivity |
| QVQLVESGGGLVQAGGSLRLSCAASGRIFRGYAMGWYRQAPGKERELVAAISSGVSTNYADSVKGRFTISRDNAKNTVYLQKNSLKPVDTAVYYCAAYFYSPYGTAGKYRRRYNYWGQGTQVTVSS | high polyreactivity |
| QVQLVESGGGLVQAGGSLRLSCAASGRIFRGYAMGWYRQAPGKERELVATISAIGGSTYADSVKGRFTISRDNAKNTVYLQRNSLKPEDTAVYYCNVRKVYRYQYRFEYWGQGTQVTVSS | high polyreactivity |
| QVQLVESGGGLVQAGGSLRLSCAASGRIFRGYAMGWYRQAPWKERELVAAISRSGGSTYYADSVKGRFTISRDNAKNTVYLQMNSLKPVDTAVYYCAAYTYSAGGYWGQGSQVTVSS | high polyreactivity |
| QVQLVESGGGLVQAGGSLRLSCAASGRIFRGYAMGWYRQPPGTERELVAAITKRGGSTYYADSVKGRFTISRDNEKNTVSLQMNSLKPEDTAVYYCAAYLPGWELREYGYWGQGTQVTVSS | high polyreactivity |
| QVQLVESGGGLVQAGGSLRLSCAASGRIFRGYARGWYRQAPGKEREFVAAITKNGGSTYYADSVKGRFTISRDNAKNTVYLQMNSLKPEDTAVYYCAVRAWDPYTGKSDYWGQGTQVTVSS | low polyreactivity |
| QVQLVESGGGLVQAGGSLRLSCAASGRIFRGYTMGWYRQAPGKERELVAAIRSGSRTNYADSVKGRFTISRDNAKNTVYLQMNSLKPEDTAVYYCAADSGYGRPYYYWGQGTQVTVSS | high polyreactivity |
| QVQLVESGGGLVQAGGSLRLSCAASGRIFRHYAMGWYRQAPGKVRELVAAIRWSGGSTYYADSVKGRFTISRDNAKNTVYLQMNSLKPADTAVYYCATRDAVGHRPSGPYQLYDYWGQGTQVTVSS | low polyreactivity |
| QVQLVESGGGLVQAGGSLRLSCAASGRIFRINAMGWYRQAPGKERELVASITSRAGSTYYADSVKGRFTISRDNAKNTVYLQMNSLKPEDTAVYYCAARSVYTYYRLDYWGQGTQVTVSS | high polyreactivity |
| QVQLVESGGGLVQAGGSLRLSCAASGRIFRIYGMGWYRQAPGKERELVADISIGGRTTYADSVKGRFTISRDNAKNTVYLQMNSLKPEDTAVYYCKTPYWYRIGQRLAWYDYWGQGTQVTVSS | low polyreactivity |
| QVQLVESGGGLVQAGGSLRLSCAASGRIFRKYAMGWYRQAPGKERELVAVINDRGGSTYYADSVKGRFTISRDNAKNTVYLQMNSLKPEDTAVYYCNATGPKKDTARYDYWGQGTQVTVSS | low polyreactivity |
| QVQLVESGGGLVQAGGSLRLSCAASGRIFRKYGMGWYRPAPGKERELVAAITGGGSTYYADSVKGRFTISRDNAKNTVYVQMNSLKPEDTAVYYCARGGYRWYPYVYVPSPFDYWGQGTQVTVSS | high polyreactivity |
| QVQLVESGGGLVQAGGSLRLSCAASGRIFRLYAMGWYRQAPGKERELVAAISKSGGSTYYADSVKGRFTISRDNAKNTVYLQMNSLKPEDTAVYYCAADYRTHGGYEGTFDYWGQGTQVTVSS | low polyreactivity |
| QVQLVESGGGLVQAGGSLRLSCAASGRIFRLYAMGWYRQAPGKERELVATITSGGTYYADSVKGRFTISRDNAKNTVYLQMNSLKPEDTAVYYFAAVVYPGYVGSQEYDYWGQGTQVTVSS | low polyreactivity |
| QVQLVESGGGLVQAGGSLRLSCAASGRIFRNNAMGWYRQATGKERELVATISSRGGSTYYADSVKGRFTISSDNAKNNVYLQMNSLKPEDTAVYYCNKRWLHWAGYDYWGQGTQVTVSS | high polyreactivity |
